Results reported in FireProtDB.

B1: Triosephosphate isomerase, glycosomal, P04789 (parent)
chain: MSKPQPIAAANWKCNGSQQSLSELIDLFNSTSINHDVQCVVASTFVHLAMTKERLSHPKFVIAAQNAIAKSGAFTGEVSLPILKDFGVNWIVLGHSERRAYYGETNEIVADKVAAAVASGFMVIACIGETLQERESGRTAVVVLTQIAAIAKKLKKADWAKVVIAYEPVWAIGTGKVATPQQAQEAHALIRSWVSSKIGADVAGELRILYGGSVNGKNARTLYQQRDVNGFLVGGASLKPEFVDIIKATQ
B2: Subtilisin BPN', P00782 (parent)
chain: MRGKKVWISLLFALALIFTMAFGSTSSAQAAGKSNGEKKYIVGFKQTMSTMSAAKKKDVISEKGGKVQKQFKYVDAASATLNEKAVKELKKDPSVAYVEEDHVAHAYAQSVPYGVSQIKAPALHSQGYTGSNVKVAVIDSGIDSSHPDLKVAGGASMVPSETNPFQDNNSHGTHVAGTVAALNNSIGVLGVAPSASLYAVKVLGADGSGQYSWIINGIEWAIANNMDVINMSLGGPSGSAALKAAVDKAVASGVVVVAAAGNEGTSGSSSTVGYPGKYPSVIAVGAVDSSNQRASFSSVGPELDVMAPGVSIQSTLPGNKYGAYNGTSMASPHVAGAAALILSKHPNWTNTQVRSSLENTTTKLGDSFYYGKGLINVQAAAQ
B3: Lactose operon repressor, P03023 (parent)
chain: MKPVTLYDVAEYAGVSYQTVSRVVNQASHVSAKTREKVEAAMAELNYIPNRVAQQLAGKQSLLIGVATSSLALHAPSQIVAAIKSRADQLGASVVVSMVERSGVEACKAAVHNLLAQRVSGLIINYPLDDQDAIAVEAACTNVPALFLDVSDQTPINSIIFSHEDGTRLGVEHLVALGHQQIALLAGPLSSVSARLRLAGWHKYLTRNQIQPIAEREGDWSAMSGFQQTMQMLNEGIVPTAMLVANDQMALGAMRAITESGLRVGADISVVGYDDTEDSSCYIPPLTTIKQDFRLLGQTSVDRLLQLSQGQAVKGNQLLPVSLVKRKTTLAPNTQTASPRALADSLMQLARQVSRLESGQ
B4: Azurin, P00282 (parent)
chain: MLRKLAAVSLLSLLSAPLLAAECSVDIQGNDQMQFNTNAITVDKSCKQFTVNLSHPGNLPKNVMGHNWVLSTAADMQGVVTDGMASGLDKDYLKPDDSRVIAHTKLIGSGEKDSVTFDVSKLKEGEQYMFFCTFPGHSALMKGTLTLK
B5: Acylphosphatase-1, P41500 (parent)
chain: MSMAEGDTLISVDYEIFGKVQGVFFRKYTQAEGKKLGLVGWVQNTDQGTVQGQLQGPASKVRHMQEWLETKGSPKSHIDRASFHNEKVIVKLDYTDFQIVK
B6: DNA-binding protein HU 1, P08821 (parent)
chain: MNKTELINAVAEASELSKKDATKAVDSVFDTILDALKNGDKIQLIGFGNFEVRERSARKGRNPQTGEEIEIPASKVPAFKPGKALKDAVAGK
B7: Glutamate dehydrogenase, Q56304 (parent)
chain: MVEQDPFEIAVKQLERAAQYMDISEEALEFLKRPQRIVEVSIPVEMDDGSVKVFTGFRVQYNWARGPTKGGIRWHPEETLSTVKALAAWMTWKTAVMDLPYGGGKGGVICNPKEMSDREKERLARGYVRAIYDVISPYTDIPAPDVYTNPQIMAWMMDEYETISRRKDPSFGVITGKPPSVGGIVARMDATARGASYTVREAAKALGMDLKGKTIAIQGYGNAGYYMAKIMSEEYGMKVVAVSDSKGGIYNPDGLNADEVLAWKKKTGSVKDFPGATNITNEELLELEVDVLAPSAIEEVITKKNADNIKAKIVAELANGPTTPEADEILYEKGILIIPDFLCNAGGVTVSYFEWVQNITGDYWTVEETRAKLDKKMTKAFWDVYNTHKEKNINMRDAAYVVAVSRVYQAMKDRGWIKK
B8: Gamma-crystallin D, P07320 (parent)
chain: MGKITLYEDRGFQGRHYECSSDHPNLQPYLSRCNSARVDSGCWMLYEQPNYSGLQYFLRRGDYADHQQWMGLSDSVRSCRLIPHSGSHRIRLYEREDYRGQMIEFTEDCSCLQDRFRFNEIHSLNVLEGSWVLYELSNYRGRQYLLMPGDYRRYQDWGATNARVGSLRRVIDFS
B9: Proteinase inhibitor, Q03026 (parent)
chain: MSASAKLSRMVCLLCGFFSTGISMASSLILLSASDLAGQWTLQQDEAPAICHLELRDSEVAEASGYDLGGDTACLTRWLPSEPRAWRPTPAGIALLERGGLTLMLLGRQGEGDYRVQKGDGGQLVLRRATP
B10: Guanyl-specific ribonuclease Sa, P05798 (parent)
chain: DVSGTVCLSALPPEATDTLNLIASDGPFPYSQDGVVFQNRESVLPTQSYGYYHEYTVITPGARTRGTRRIITGEATQEDYYTGDHYATFSLIDQTC

Variants of: B1
Conditions: Trypanosoma brucei brucei; pH 7; Thermal; CD; 3-(N-morpholino)propanesulfonic acid/dithiothreitol 20 mM/0.02 mM; EDTA 0.02 mM; structure 3TIM; whole UniProt chain shown

Variant | Tm [°C]
R191S | 51.6
R191A | 47.3

Same assay, conditions: Trypanosoma brucei brucei; pH 7; Thermal; CD; MOPS 20 mM; reversible: no; structure 1TPE; whole UniProt chain shown

Variant | Tm [°C] | change of melting temperature, mutant - wild type (higher = more stable) [°C]
T75R G76Q | 52 | -5

Variants of: B2
Conditions: Bacillus amyloliquefaciens; pH 5; 20 °C; Thermal; DSC; Sodium acetate 100 mM; reversible: yes; structure 1SUP; whole UniProt chain shown

Variant | ddG of mutation (higher = less stable) [kcal/mol] | unfolding free energy [kcal/mol]
K87E | 1 | 1.1
Q70L | 1.1 | 1
E62Q K87E | 1.3 | 0.8

Same assay, conditions: Bacillus amyloliquefaciens; pH 8; Thermal; DSC; Tris-HCl 50 mM; KCl 50 mM; structure 1SUP; whole UniProt chain shown

Variant | Tm [°C] | change of melting temperature, mutant - wild type (higher = more stable) [°C]
S194C | 57.2 | -1.7
T129C | 56.4 | -2.5
T129C S194C | 62 | 3.1

Same assay, conditions: Bacillus amyloliquefaciens; pH 7.5; Thermal; fluorescence; Pipes 10 mM; transition: 2; structure 1AK9; whole UniProt chain shown

Variant | Tm [°C] | change of melting temperature, mutant - wild type (higher = more stable) [°C] | unfolding enthalpy (calorimetric) [kcal/mol]
T173M G209D | 56.3 | -0.5 | 72.8

Same assay, conditions: Bacillus amyloliquefaciens; pH 9.63; Thermal; DSC; glycine 50 mM; reversible: yes; structure 1SUP; whole UniProt chain shown

Variant | Tm [°C] | unfolding enthalpy (calorimetric) [kcal/mol] | unfolding enthalpy (van 't Hoff) [kcal/mol]
M157F Y324K N325S S328C | 63.5 | 140 | 140

Same assay, conditions: Bacillus amyloliquefaciens; pH 8; Thermal; DSC; Tris-HCl 50 mM; CaCl2 10 mM; reversible: no; structure 1SUP; whole UniProt chain shown

Variant | Tm [°C] | change of melting temperature, mutant - wild type (higher = more stable) [°C]
N325S | 80.7 | 2.4

Variants of: B3
Conditions: Escherichia coli (strain K12); pH 7.4; Thermal; CD; phosphate 5 mM; reversible: no; structure 1LBI; whole UniProt chain shown

Variant | Tm [°C]
K84L | 93
K84M | 93

Same assay, conditions: Escherichia coli (strain K12); pH 7.5; Urea; CD; Tris-HCl 0.01 M; K2SO4 0.1 M; reversible: yes (90%); structure 1LBI; whole UniProt chain shown

Variant | unfolding free energy [kcal/mol]
Y282D | 4.8

Variants of: B4
Conditions: Pseudomonas aeruginosa (strain ATCC 15692 / DSM 22644 / CIP 104116 / JCM 14847 / LMG 12228 / 1C / PRS 101 / PAO1); pH 7.5; 40 °C; GdnHCl; Fluorescence; Tris Cl 2 mM; reversible: Yes; structure 5AZU; whole UniProt chain shown

Variant | ddG of mutation (higher = less stable) [kcal/mol] | unfolding free energy [kcal/mol]
I27S | 6.4 | 2.2
F130S | 6.4 | 2.2

Same assay, conditions: Pseudomonas aeruginosa (strain ATCC 15692 / DSM 22644 / CIP 104116 / JCM 14847 / LMG 12228 / 1C / PRS 101 / PAO1); pH 7; 20 °C; GdnHCl; CD; phosphate 5 mM; reversible: yes; structure 5AZU; whole UniProt chain shown

Variant | denaturant m value [kcal/mol/M] | denaturant midpoint (higher = more stable) [M] | unfolding free energy [kcal/mol]
H66G | 3.94 | 1.1 | 4.35

Variants of: B5
Conditions: Bos taurus; pH 5.5; 25 °C; Thermal; CD; sodium acetate 5 mM; reversible: Yes; structure 2ACY; whole UniProt chain shown

Variant | ddG of mutation (higher = less stable) [kcal/mol]
K27E E66K N85K Q98K | -1.67

Same assay, conditions: Bos taurus; pH 5.5; Thermal; CD; sodium acetate 5 mM; reversible: Yes; structure 2ACY; whole UniProt chain shown

Variant | change of melting temperature, mutant - wild type (higher = more stable) [°C]
K27E E66K N85K Q98K | 5.4

Same assay, conditions: Bos taurus; pH 7; 25 °C; Thermal; DSC; sodium phosphate 50 mM; reversible: Yes; structure 2ACY; whole UniProt chain shown

Variant | ddG of mutation (higher = less stable) [kcal/mol]
K27E E66K N85K Q98K | -1.67

Same assay, conditions: Bos taurus; pH 7; Thermal; DSC; sodium phosphate 50 mM; reversible: Yes; structure 2ACY; whole UniProt chain shown

Variant | change of melting temperature, mutant - wild type (higher = more stable) [°C]
K27E E66K N85K Q98K | 5.4

Variants of: B6
Conditions: Bacillus subtilis (strain 168); pH 7.5; 20 °C; Thermal; CD; Tris/HCl 5 mM; reversible: yes; whole UniProt chain shown

Variant | unfolding free energy [kcal/mol]
F79W | 9.57
F50W | 8.61

Variants of: B7
Conditions: Thermococcus litoralis (strain ATCC 51850 / DSM 5473 / JCM 8560 / NS-C); pH 7; Thermal; DSC; diglycine 50 mM; KCl 700 mM; reversible: no; structure 1BVU; whole UniProt chain shown

Variant | Tm [°C] | change of melting temperature, mutant - wild type (higher = more stable) [°C]
D168T | 108 | -0.5
T139E | 104 | -5.5
T139E D168T | 112 | 2.5

Variants of: B8
Conditions: Homo sapiens; pH 7; Thermal; ANS fluorescence; PBS; transition: 2; reversible: yes; structure 1HK0; whole UniProt chain shown

Variant | Tm [°C] | change of melting temperature, mutant - wild type (higher = more stable) [°C]
G61C | 69.6 | -7

Same assay, conditions: Homo sapiens; pH 7; Thermal; CD; PBS; transition: 2; reversible: yes; structure 1HK0; whole UniProt chain shown

Variant | Tm [°C] | change of melting temperature, mutant - wild type (higher = more stable) [°C]
G61C | 73.9 | -6.1

Same assay, conditions: Homo sapiens; pH 7; Thermal; Fluorescence; PBS; transition: 2; reversible: yes; structure 1HK0; whole UniProt chain shown

Variant | Tm [°C]
G61C | 74.3

Same assay, conditions: Homo sapiens; pH 7; Thermal; light scattering; PBS; transition: 2; reversible: yes; structure 1HK0; whole UniProt chain shown

Variant | Tm [°C]
G61C | 75.1

Variants of: B9
Conditions: Pseudomonas aeruginosa (strain ATCC 15692 / DSM 22644 / CIP 104116 / JCM 14847 / LMG 12228 / 1C / PRS 101 / PAO1); pH 7.1; 25 °C; GdnHCl; CD; Tris-HCl 50 mM; reversible: yes (75%); structure 2RN4; whole UniProt chain shown

Variant | ddG of mutation (higher = less stable) [kcal/mol] | unfolding free energy [kcal/mol]
W40F | -1.1 | 4.9
D35A | -2.7 | 6.5
A33P | -3.2 | 7

Same assay, conditions: Pseudomonas aeruginosa (strain ATCC 15692 / DSM 22644 / CIP 104116 / JCM 14847 / LMG 12228 / 1C / PRS 101 / PAO1); pH 7.1; Thermal; CD; sodium phosphate 20 mM; NaCl 0.1 M; reversible: yes (75%); structure 2RN4; whole UniProt chain shown

Variant | Tm [°C] | change of melting temperature, mutant - wild type (higher = more stable) [°C] | unfolding enthalpy (van 't Hoff) [kcal/mol]
D35A | 81.5 | 17.7 | 84.5

Variants of: B10
Conditions: Kitasatospora aureofaciens; pH 7; 25 °C; Thermal; CD; MOPS 30 mM; structure 1RGG; whole UniProt chain shown

Variant | ddG of mutation (higher = less stable) [kcal/mol]
E74K | -1.1
E41K | 1.2
D17K | 1.1
D25H | -0.9
